Measured values published in patent US20190023791A1 (GlaxoSmithKline, published 2019).
Where “and” joins values, the source holds several entries; their conditions need not be identical. Equal values may be shown once.

What was measured:
[1] = biological target: T1, human OX40 on cells (activated human CD4+ T cells, stimulated PBMC, lymphocytes in whole blood) (human, UniProt P43489 29-277); assay: binding to stimulated human PBMC; stimulated human PBMC; lower end of range
T1 construct: whole, on cells; also called cell-surface OX40; human OX40 receptor on CD4+ T cells
T1 sequence (looked up): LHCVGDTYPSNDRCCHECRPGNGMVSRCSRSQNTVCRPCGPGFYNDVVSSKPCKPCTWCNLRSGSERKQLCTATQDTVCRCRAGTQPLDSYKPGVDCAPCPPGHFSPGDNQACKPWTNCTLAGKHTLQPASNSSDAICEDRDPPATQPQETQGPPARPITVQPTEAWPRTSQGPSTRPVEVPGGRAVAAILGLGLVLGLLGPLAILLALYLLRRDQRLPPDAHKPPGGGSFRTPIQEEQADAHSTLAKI

[2] = biological target: T2, cynomolgus monkey OX40 on cells (activated cynomolgus monkey CD4+ T cells, OX40+ cells in peripheral blood) (cynomolgus monkey); assay: binding to activated cynomolgus monkey CD4+ T cells; activated cynomolgus monkey CD4+ T cells
T2 construct: whole, on cells; also called monkey OX40 receptor on CD4+ T cells

[3] = biological target: T1, human OX40 on cells (activated human …); assay: cell-based or functional assay
[4] = biological target: T2, cynomolgus monkey OX40 on cells …; assay: cell-based or functional assay
[5] = biological target: T1, human OX40 on cells (activated human …); assay: binding to activated human CD4+ T cells; activated human CD4+ T cells
[6] = biological target: T1, human OX40 on cells (activated human …); assay: unstimulated human whole-blood binding assay, lymphocytes
[7] = biological target: T3, recombinant OX40 extracellular domain from cynomolgus monkeys (cynomolgus monkey); assay: binding to recombinant OX40 extracellular domain, method not stated
T3 construct: extracellular domain; also called cynomolgus monkey OX40

[8] = biological target: T4, recombinant OX40 extracellular domain from humans (human, UniProt P43489 29-214); assay: binding to recombinant OX40 extracellular domain, method not stated; recombinant human OX40 extracellular domain
T4 construct: extracellular domain; also called human OX40; hOX40
T4 sequence (looked up): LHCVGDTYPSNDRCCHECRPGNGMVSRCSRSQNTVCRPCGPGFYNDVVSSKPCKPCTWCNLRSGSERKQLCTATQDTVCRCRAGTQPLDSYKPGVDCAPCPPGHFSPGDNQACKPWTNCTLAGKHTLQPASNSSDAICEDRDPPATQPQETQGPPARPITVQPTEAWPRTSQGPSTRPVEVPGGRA

[9] = biological target: T1, human OX40 on cells (activated human …); assay: binding to stimulated human PBMC; stimulated human PBMC; upper end of range

EC50 [1]: ≥ 0.1 µg/mL
EC50 [2]: 0.35 µg/mL
anti-CD3 induced proliferation of activated human CD4+ T cells, mean EC50 [3]: 0.19 µg/mL and 1.3 nM
proliferation of immobilized anti-CD3 activated cynomolgus monkey CD4+ T cells, mean EC50 [4]: 0.72 µg/mL and 4.8 nM
EC50 [5]: 0.3 µg/mL
EC50 [6]: 1.45 µg/mL
Kd [7]: 408 nM
Kd [8]: 4.9 nM
EC50 [9]: ≤ 0.3 µg/mL
B1: ANTIBODY 106-222 (antibody, human IgG1, kappa, V domains shown)
VH: QVQLVQSGSELKKPGASVKVSCKASGYTFTDYSMHWVRQAPGQGLKWMGWINTETGEPTYADDFKGRFVFSLDTSVSTAYLQISSLKAEDTAVYYCANPYYDYVSYYAMDYWGQGTTVTVSS
VL: DIQMTQSPSSLSASVGDRVTITCKASQDVSTAVAWYQQKPGKAPKLLIYSASYLYTGVPSRFSGSGSGTDFTFTISSLQPEDIATYYCQQHYSTPRTFGQGTKLEIKR
notes: also called humanized wild-type IgG1 anti-OX40 agonistic mAb
